Patent US20150023979A1 (VALDOSPAN, published 2015)

How the values were obtained:
[1] = molecular target: T1, HPV35 E7 protein, recombinant (His-TEV-E7 fusion from E. coli) (Human Papilloma Virus type 35 (HPV35), UniProt P27230 1-99, CKII phosphorylation of the consensus site serines in the antigen preparation of Example 2); experiment: ELISA and dot-blot, semiquantitative crossreactivity
T1 construct: mature; also called VE7_HPV35; not shown: N-terminal 6x Histidine tag and TEV cleavage site of the vector
T1 sequence: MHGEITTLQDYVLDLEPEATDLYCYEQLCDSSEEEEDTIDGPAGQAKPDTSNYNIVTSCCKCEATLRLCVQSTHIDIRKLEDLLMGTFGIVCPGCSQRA

[2] = molecular target: T2, HPV56 E7 protein, recombinant (His-TEV-E7 fusion from E. coli) (Human Papilloma Virus type 56 (HPV56), UniProt P36833 1-105, CKII phosphorylation of the consensus site serines in the antigen preparation of Example 2); experiment: as above
T2 construct: mature; also called VE7_HPV56; not shown: N-terminal 6x Histidine tag and TEV cleavage site of the vector
T2 sequence: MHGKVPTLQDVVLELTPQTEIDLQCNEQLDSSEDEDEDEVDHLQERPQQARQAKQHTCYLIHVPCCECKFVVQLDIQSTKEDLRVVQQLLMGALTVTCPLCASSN

[3] = molecular target: T3, HPV18 E7 protein, recombinant (His-TEV-E7 fusion from E. coli) (Human Papilloma Virus type 18 (HPV18), UniProt P06788 1-105, CKII phosphorylation of the consensus site serines in the antigen preparation of Example 2; biotin on primary amines in the SPR assay); experiment: as above
T3 construct: mature; also called VE7_HPV18; not shown: N-terminal 6x Histidine tag and TEV cleavage site of the vector
T3 sequence: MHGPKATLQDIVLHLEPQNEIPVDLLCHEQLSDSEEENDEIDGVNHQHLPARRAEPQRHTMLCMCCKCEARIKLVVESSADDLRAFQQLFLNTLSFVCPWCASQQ

[4] = molecular target: T4, HPV51 E7 protein, recombinant (His-TEV-E7 fusion from E. coli) (Human Papilloma Virus type 51 (HPV51), UniProt P26558 1-101, CKII phosphorylation of the consensus site serines in the antigen preparation of Example 2); experiment: as above
T4 construct: mature; also called VE7_HPV51; not shown: N-terminal 6x Histidine tag and TEV cleavage site of the vector
T4 sequence: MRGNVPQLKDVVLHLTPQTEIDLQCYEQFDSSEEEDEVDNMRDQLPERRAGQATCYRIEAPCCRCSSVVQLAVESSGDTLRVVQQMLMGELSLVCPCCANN

[5] = molecular target: T5, HPV45 E7 protein, recombinant (His-TEV-E7 fusion from E. coli) (Human Papilloma Virus type 45 (HPV45), UniProt P21736 1-106, CKII phosphorylation of the consensus site serines in the antigen preparation of Example 2; biotin on primary amines in the SPR assay); experiment: as above
T5 construct: mature; also called VE7_HPV45; not shown: N-terminal 6x Histidine tag and TEV cleavage site of the vector
T5 sequence: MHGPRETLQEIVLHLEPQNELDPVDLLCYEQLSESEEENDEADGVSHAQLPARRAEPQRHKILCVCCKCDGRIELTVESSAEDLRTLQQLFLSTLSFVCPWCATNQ

[6] = molecular target: T6, HPV31 E7 protein, recombinant (His-TEV-E7 fusion from E. coli) (Human Papilloma Virus type 31 (HPV31), UniProt P17387 1-98, CKII phosphorylation of the consensus site serines in the antigen preparation of Example 2); experiment: ELISA and dot-blot, semiquantitative crossreactivity (++ strong positive)
T6 construct: mature; also called VE7_HPV31; not shown: N-terminal 6x Histidine tag and TEV cleavage site of the vector
T6 sequence: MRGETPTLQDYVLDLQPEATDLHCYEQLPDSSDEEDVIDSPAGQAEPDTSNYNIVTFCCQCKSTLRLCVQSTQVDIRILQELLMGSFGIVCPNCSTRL

[7] = molecular target: T7, HPV52 E7 protein, recombinant (His-TEV-E7 fusion from E. coli) (Human Papilloma Virus type 52 (HPV52), UniProt P36831 1-99, CKII phosphorylation of the consensus site serines in the antigen preparation of Example 2); experiment: as above
T7 construct: mature; also called VE7_HPV52; not shown: N-terminal 6x Histidine tag and TEV cleavage site of the vector
T7 sequence: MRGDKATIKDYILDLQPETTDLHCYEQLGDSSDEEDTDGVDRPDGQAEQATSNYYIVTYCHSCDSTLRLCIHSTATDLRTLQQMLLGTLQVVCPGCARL

[8] = molecular target: T8, HPV58 E7 protein, recombinant (His-TEV-E7 fusion from E. coli) (Human Papilloma Virus type 58 (HPV58), UniProt P26557 1-98, CKII phosphorylation of the consensus site serines in the antigen preparation of Example 2); experiment: as above
T8 construct: mature; also called VE7_HPV58; not shown: N-terminal 6x Histidine tag and TEV cleavage site of the vector
T8 sequence: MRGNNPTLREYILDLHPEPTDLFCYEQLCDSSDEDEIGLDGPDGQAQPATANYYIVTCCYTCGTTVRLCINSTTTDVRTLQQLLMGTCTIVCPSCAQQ

[9] = molecular target: T9, HPV33 E7 protein, recombinant (His-TEV-E7 fusion from E. coli) (Human Papilloma Virus type 33 (HPV33), UniProt P06429 1-97, CKII phosphorylation of the consensus site serines in the antigen preparation of Example 2; biotin on primary amines in the SPR assay); experiment: as above
T9 construct: mature; also called VE7_HPV33; not shown: N-terminal 6x Histidine tag and TEV cleavage site of the vector
T9 sequence: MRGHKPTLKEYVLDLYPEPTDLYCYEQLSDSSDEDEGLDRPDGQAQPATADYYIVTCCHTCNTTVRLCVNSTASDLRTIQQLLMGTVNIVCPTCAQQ

[10] = molecular target: T10, HPV6 E7 protein (low risk type), recombinant (His-TEV-E7 fusion from E. coli) (Human Papilloma Virus type 6 (HPV6), UniProt Q84292 1-98); experiment: ELISA and dot-blot
T10 construct: mature; the only HPV6 entry in the list of constructs is VE7_HPV6A; also called VE7_HPV6A; not shown: N-terminal 6x Histidine tag and TEV cleavage site of the vector
T10 sequence: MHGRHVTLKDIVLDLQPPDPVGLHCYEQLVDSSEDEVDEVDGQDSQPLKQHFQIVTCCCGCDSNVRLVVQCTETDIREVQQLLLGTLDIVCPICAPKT

[11] = molecular target: T11, HPV5 E7 protein (beta-papillomavirus), recombinant (His-TEV-E7 fusion from E. coli) (Human Papilloma Virus type 5 (HPV5), UniProt P06932 1-103); experiment: ELISA and dot-blot
T11 construct: mature; also called VE7_HPV05; not shown: N-terminal 6x Histidine tag and TEV cleavage site of the vector
T11 sequence: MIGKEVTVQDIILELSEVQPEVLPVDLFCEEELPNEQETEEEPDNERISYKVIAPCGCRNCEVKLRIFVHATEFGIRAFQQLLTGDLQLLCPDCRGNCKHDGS

[12] = molecular target: T12, HPV38 E7 protein (beta-papillomavirus), recombinant (His-TEV-E7 fusion from E. coli) (Human Papilloma Virus type 38 (HPV38), UniProt Q80908 1-100); experiment: ELISA and dot-blot
T12 construct: mature; also called HPVE7 38; VE7_HPV38; not shown: N-terminal 6x Histidine tag and TEV cleavage site of the vector
T12 sequence: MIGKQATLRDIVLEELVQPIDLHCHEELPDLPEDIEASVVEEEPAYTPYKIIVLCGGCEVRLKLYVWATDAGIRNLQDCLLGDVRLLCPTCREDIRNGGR

[13] = molecular target: T13, HPV11 E7 protein (low risk type), recombinant (His-TEV-E7 fusion from E. coli) (Human Papilloma Virus type 11 (HPV11), UniProt P04020 1-98); experiment: ELISA and dot-blot
T13 construct: mature; also called VE7_HPV11; not shown: N-terminal 6x Histidine tag and TEV cleavage site of the vector
T13 sequence: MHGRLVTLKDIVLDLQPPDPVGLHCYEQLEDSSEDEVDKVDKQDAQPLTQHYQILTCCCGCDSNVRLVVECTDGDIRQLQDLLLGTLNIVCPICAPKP

[14] = molecular target: T1, HPV35 E7 protein, recombinant …; experiment: ELISA and dot-blot, semiquantitative crossreactivity (++ strong positive); antigens denatured for this antibody
[15] = molecular target: T7, HPV52 E7 protein, recombinant …; experiment: as above
[16] = molecular target: T8, HPV58 E7 protein, recombinant …; experiment: as above
[17] = molecular target: T2, HPV56 E7 protein, recombinant …; experiment: ELISA and dot-blot, semiquantitative crossreactivity; antigens denatured for this antibody
[18] = molecular target: T3, HPV18 E7 protein, recombinant …; experiment: as above
[19] = molecular target: T4, HPV51 E7 protein, recombinant …; experiment: as above
[20] = molecular target: T5, HPV45 E7 protein, recombinant …; experiment: as above

B1: ACAB167 (antibody, V domains shown)
VH: EVQLEESGGGLVQPKGSLKLSCTASGFPFNTYAMNWVRQAPGKGLEWVARIRTKSNNYATYYADSVKDRFTISRDDSQNMLYLQMNNLKTEDTAMYYCVRLYGYYFDYWGQGTTLTVSS
VL: DIVMTQSPEIMSASPGEKVTMTCSASSSVSFMFWYQQKSGTSPKIWIYDTSKLASGVPARFSGSGSGTSYSLTVSSMEAEDAATYYCQQWNSNPPTFGVGTKLELKR
notes: the printed entries run on into the first residues of the constant domains; also called HPV16E7 IgG2b antibody ACAB167
binding result [1]: no binding
binding result [2]: no binding
binding result [3]: no binding
binding result [4]: no binding
binding result [5]: no binding
binding result [6]: binds
binding result [7]: binds
binding result [8]: binds
binding result [9]: binds
binding result [10]: no binding
binding result [11]: no binding
binding result [12]: no binding
binding result [13]: no binding

B2: ACAB337 (antibody, IgG1, V domains shown)
VH: DVQLQESGPGLVKPSQSLSLTCTVTGHSITSDYAWNWIRQFPGNKLEWVAYISYSGGTGYNPSLKSRISITRDTSKPNQFFLQLNSVTTEDTATYYCACGDYYYGPRDYWGQGTSVTVSS
VL: DILLTQSPAILSVSPGERVSFSCRASQSIGTSIHWYQQRTNGSPRLLIKYASESISGIPSRFSGSGSGTDFTLSINSVESEDIADYYCQQSNYWPFTFGSGTKLEIKR
notes: also called HPV33E7 IgG1 antibody ACAB337
binding result [14]: binds
binding result [15]: binds
binding result [16]: binds
binding result [10]: no binding
binding result [11]: no binding
binding result [12]: no binding
binding result [13]: no binding
binding result [17]: no binding
binding result [18]: no binding
binding result [19]: no binding
binding result [20]: no binding
